{"source": "the supplement of paper PMC9112550", "about": "“Optimization of the antimicrobial peptide Bac7 by deep mutational scanning” (BMC Biology, 2022);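 note: peptides expressed intracellularly from a pBAD plasmid library in pooled LB shake-flask culture, induced with 0.3% L-arabinose, DNA abundance read by NGS, three biological replicates, DESeq2 with apeglm shrinkage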"}
{"test_system": "Escherichia coli TOP10", "assay": "shrunken log2 fold change of peptide-encoding DNA abundance (4.5 h post-induction vs induction); higher = less antimicrobial activity (less host growth inhibition)", "conditions": "time post-induction: 4.5 h; library: site-saturation at positions 5, 18, 19, 20"}
{"sequence": "RRIRGRPPRLPRPRPRPPHNPRP", "shrunken log2 fold change": 0.585}
{"sequence": "RRIRTRPPRLPRPRPRPEVCPRP", "shrunken log2 fold change": 0.212}
{"sequence": "RRIRARPPRLPRPRPRPHPSPRP", "shrunken log2 fold change": 0.327}
{"sequence": "RRIRVRPPRLPRPRPRPLTTPRP", "shrunken log2 fold change": -0.219}
{"sequence": "RRIRERPPRLPRPRPRPPNDPRP", "shrunken log2 fold change": -0.462}
{"sequence": "RRIRQRPPRLPRPRPRPDSKPRP", "shrunken log2 fold change": -0.146}
{"sequence": "RRIRKRPPRLPRPRPRPLPKPRP", "shrunken log2 fold change": 0.54}
{"sequence": "RRIRERPPRLPRPRPRPHMRPRP", "shrunken log2 fold change": 0.0528}
{"sequence": "RRIRMRPPRLPRPRPRPKVDPRP", "shrunken log2 fold change": -0.0311}
{"sequence": "RRIRFRPPRLPRPRPRPALAPRP", "shrunken log2 fold change": 0.257}
{"sequence": "RRIRLRPPRLPRPRPRPYRQPRP", "shrunken log2 fold change": -0.0238}
{"sequence": "RRIRHRPPRLPRPRPRPEERPRP", "shrunken log2 fold change": -0.0858}
{"sequence": "RRIRPRPPRLPRPRPRPFHKPRP", "shrunken log2 fold change": -0.453}
{"sequence": "RRIRRRPPRLPRPRPRPPECPRP", "shrunken log2 fold change": 0.222}
{"sequence": "RRIRRRPPRLPRPRPRPMHPPRP", "shrunken log2 fold change": 0.552}
{"sequence": "RRIRGRPPRLPRPRPRPIMDPRP", "shrunken log2 fold change": 0.0794}
{"sequence": "RRIRYRPPRLPRPRPRPERTPRP", "shrunken log2 fold change": 0.0654}
{"sequence": "RRIRARPPRLPRPRPRPPYPPRP", "shrunken log2 fold change": 0.256}
{"sequence": "RRIRTRPPRLPRPRPRPPTYPRP", "shrunken log2 fold change": -0.149}
{"sequence": "RRIRWRPPRLPRPRPRPYYMPRP", "shrunken log2 fold change": -0.258}
{"sequence": "RRIRARPPRLPRPRPRPVPVPRP", "shrunken log2 fold change": 0.423}
{"sequence": "RRIRCRPPRLPRPRPRPWSKPRP", "shrunken log2 fold change": -0.498}
{"sequence": "RRIRCRPPRLPRPRPRPYQMPRP", "shrunken log2 fold change": -1.3}
{"sequence": "RRIRFRPPRLPRPRPRPINGPRP", "shrunken log2 fold change": -0.0164}
{"sequence": "RRIRHRPPRLPRPRPRPFVNPRP", "shrunken log2 fold change": -0.124}
{"sequence": "RRIRARPPRLPRPRPRPPQYPRP", "shrunken log2 fold change": 0.33}
{"sequence": "RRIRDRPPRLPRPRPRPNVFPRP", "shrunken log2 fold change": -0.268}
{"sequence": "RRIRPRPPRLPRPRPRPVDIPRP", "shrunken log2 fold change": -0.288}
{"sequence": "RRIRMRPPRLPRPRPRPPPNPRP", "shrunken log2 fold change": 1.77}
{"sequence": "RRIRCRPPRLPRPRPRPFQVPRP", "shrunken log2 fold change": -0.335}
{"sequence": "RRIRTRPPRLPRPRPRPRNEPRP", "shrunken log2 fold change": -0.0624}
{"sequence": "RRIRVRPPRLPRPRPRPRNWPRP", "shrunken log2 fold change": 0.4}
{"sequence": "RRIRDRPPRLPRPRPRPEPDPRP", "shrunken log2 fold change": 1.33}
{"sequence": "RRIRYRPPRLPRPRPRPRKPPRP", "shrunken log2 fold change": 0.0457}
{"sequence": "RRIRSRPPRLPRPRPRPSNSPRP", "shrunken log2 fold change": -0.145}
{"sequence": "RRIRWRPPRLPRPRPRPPHNPRP", "shrunken log2 fold change": 0.527}
{"sequence": "RRIRVRPPRLPRPRPRPMDHPRP", "shrunken log2 fold change": -0.426}
{"sequence": "RRIRSRPPRLPRPRPRPSQMPRP", "shrunken log2 fold change": -0.161}
{"sequence": "RRIRPRPPRLPRPRPRPVGRPRP", "shrunken log2 fold change": 0.0963}
{"sequence": "RRIRMRPPRLPRPRPRPRYPPRP", "shrunken log2 fold change": 0.0438}
{"sequence": "RRIRVRPPRLPRPRPRPMTPPRP", "shrunken log2 fold change": 0.452}
{"sequence": "RRIRKRPPRLPRPRPRPTCLPRP", "shrunken log2 fold change": 0.0518}
{"sequence": "RRIRSRPPRLPRPRPRPRDLPRP", "shrunken log2 fold change": 0.254}
{"sequence": "RRIRGRPPRLPRPRPRPIMLPRP", "shrunken log2 fold change": 2.36}
{"sequence": "RRIRMRPPRLPRPRPRPHNKPRP", "shrunken log2 fold change": -0.305}
{"sequence": "RRIRTRPPRLPRPRPRPVMVPRP", "shrunken log2 fold change": -0.0537}
{"sequence": "RRIRVRPPRLPRPRPRPQLYPRP", "shrunken log2 fold change": -0.137}
{"sequence": "RRIRDRPPRLPRPRPRPSESPRP", "shrunken log2 fold change": -0.000946}
{"sequence": "RRIRMRPPRLPRPRPRPNPGPRP", "shrunken log2 fold change": 0.0378}
{"sequence": "RRIRMRPPRLPRPRPRPFLMPRP", "shrunken log2 fold change": -0.0208}
{"sequence": "RRIRKRPPRLPRPRPRPKDMPRP", "shrunken log2 fold change": 0.139}
{"sequence": "RRIRNRPPRLPRPRPRPSEHPRP", "shrunken log2 fold change": -0.159}
{"sequence": "RRIRHRPPRLPRPRPRPCAMPRP", "shrunken log2 fold change": -0.257}
{"sequence": "RRIRGRPPRLPRPRPRPFDQPRP", "shrunken log2 fold change": 0.2}
{"sequence": "RRIRLRPPRLPRPRPRPEKCPRP", "shrunken log2 fold change": -0.0157}
{"sequence": "RRIRFRPPRLPRPRPRPHHGPRP", "shrunken log2 fold change": 0.000407}
{"sequence": "RRIRTRPPRLPRPRPRPHEYPRP", "shrunken log2 fold change": -0.17}
{"sequence": "RRIRVRPPRLPRPRPRPGLMPRP", "shrunken log2 fold change": 0.0219}
{"sequence": "RRIRTRPPRLPRPRPRPNIHPRP", "shrunken log2 fold change": -0.586}
{"sequence": "RRIRTRPPRLPRPRPRPSRAPRP", "shrunken log2 fold change": 0.271}
{"sequence": "RRIRTRPPRLPRPRPRPNQKPRP", "shrunken log2 fold change": -0.306}
{"sequence": "RRIRNRPPRLPRPRPRPPQEPRP", "shrunken log2 fold change": -0.0479}
{"sequence": "RRIRMRPPRLPRPRPRPWRWPRP", "shrunken log2 fold change": 0.205}
{"sequence": "RRIRARPPRLPRPRPRPWDTPRP", "shrunken log2 fold change": 0.0787}
{"sequence": "RRIRNRPPRLPRPRPRPHSFPRP", "shrunken log2 fold change": -0.258}
{"sequence": "RRIRVRPPRLPRPRPRPMYVPRP", "shrunken log2 fold change": 3.48}
{"sequence": "RRIRRRPPRLPRPRPRPNRFPRP", "shrunken log2 fold change": 0.156}
{"sequence": "RRIRLRPPRLPRPRPRPHVPPRP", "shrunken log2 fold change": 0.0978}
{"sequence": "RRIRGRPPRLPRPRPRPIHLPRP", "shrunken log2 fold change": -0.0773}
{"sequence": "RRIRWRPPRLPRPRPRPAHWPRP", "shrunken log2 fold change": 0.0695}
{"sequence": "RRIRGRPPRLPRPRPRPVKSPRP", "shrunken log2 fold change": 0.0201}
{"sequence": "RRIRERPPRLPRPRPRPKRWPRP", "shrunken log2 fold change": 0.35}
{"sequence": "RRIRVRPPRLPRPRPRPEHTPRP", "shrunken log2 fold change": 0.224}
{"sequence": "RRIRQRPPRLPRPRPRPYVWPRP", "shrunken log2 fold change": -0.00378}
{"sequence": "RRIRARPPRLPRPRPRPIDGPRP", "shrunken log2 fold change": 0.00408}
{"sequence": "RRIRDRPPRLPRPRPRPYGKPRP", "shrunken log2 fold change": -0.511}
{"sequence": "RRIRKRPPRLPRPRPRPMQIPRP", "shrunken log2 fold change": -0.0337}
{"sequence": "RRIRRRPPRLPRPRPRPDRIPRP", "shrunken log2 fold change": 0.14}
{"sequence": "RRIRPRPPRLPRPRPRPVWKPRP", "shrunken log2 fold change": 0.218}
{"sequence": "RRIRERPPRLPRPRPRPGEKPRP", "shrunken log2 fold change": -0.00142}
{"sequence": "RRIRIRPPRLPRPRPRPWPQPRP", "shrunken log2 fold change": 0.0274}
{"sequence": "RRIRYRPPRLPRPRPRPYQLPRP", "shrunken log2 fold change": -0.00146}
{"sequence": "RRIRRRPPRLPRPRPRPWTPPRP", "shrunken log2 fold change": 0.568}
{"sequence": "RRIRERPPRLPRPRPRPPIVPRP", "shrunken log2 fold change": -0.302}
{"sequence": "RRIRQRPPRLPRPRPRPDQPPRP", "shrunken log2 fold change": -0.0438}
{"sequence": "RRIRMRPPRLPRPRPRPHWVPRP", "shrunken log2 fold change": -0.0142}
{"sequence": "RRIRDRPPRLPRPRPRPGNVPRP", "shrunken log2 fold change": -0.0882}
{"sequence": "RRIRFRPPRLPRPRPRPIRPPRP", "shrunken log2 fold change": -0.009}
{"sequence": "RRIRARPPRLPRPRPRPCLHPRP", "shrunken log2 fold change": 1.24}
{"sequence": "RRIRRRPPRLPRPRPRPIWRPRP", "shrunken log2 fold change": 0.181}
{"sequence": "RRIRRRPPRLPRPRPRPWYMPRP", "shrunken log2 fold change": -0.0284}
